Source: the DeepSol protein solubility set

Assay: soluble on expression in E. coli; label from the status in PepcDB or PDB records

Sequence	soluble on expression in E. coli
MAHHHHHHMWRRAACQAVTSRFFRPAVAASTASSSSALRESCRTGIIIGNPKQGMIDPIHVSWTDIAGSDTTPGARLAAGRVLAMLDMCAARTSQKAIDHQDCLTHERYLTCTVGVTNTMFSSPILHGDAVRLDGRLVCCGSSSMGIYIRFYRQSPSTRTETPAGHSFFTMVAITPDLKAAKVVPAIELTDPLDIELHNHYVKVRKLQEENKKNTAERLKRTLTTEEVQCSINQQKPIHARINSTRVEANRIFFTSCMNNNNTVFGGELMAWMEQHAVHCGRMFTGNRYVFTIGMHSVAFPEPVFATDWVTLEATVIYVRNTTMEVDVVLKAERKDAGTVITNRASFVLINNDDIGRKCAIPIGLELNGATQEELQQFMEARVRYHCSVARRDDFHASNLCTGTTKL	not soluble
SAAPRVFPLSCAVQQYAWGKMGSNSEVARLLASSDPLAQIAEDKPYAELWMGTHPRGDAKILDNRISQKTLSQWIAENQDSLGSKVKDTFNGNLPFLFKVLSVETPLSIQAHPNKELAEKLHLQAPQHYPDANHKPEMAIALTPFQGLCGFRPVEEIVTFLKTAAGNNMEDIFGELLLQLHQQYPGDIGCFAIYFLNLLTLKPGEAMFLEANVPHAYLKGDCVECMACSDNTVRAGLTPKFIDVPTLCEMLSYTPSSSKDRLFLPTRSQEDPYLSIYDPPVPDFTIMKTEVPGSVTEYKVLALDSASILLMVQGTVIASTPTTQTPIPLQRGGVLFIGANESVSLKLTEPKDLLIFRACCLL	soluble
MTDGPIKVNSEIGALKTVLLKRPGKELENLVPDYLDGLLFDDIPYLEVAQKEHDHFAQVLREEGVEVLYLEKLAAESIENPQVRSEFIDDVLAESKKTILGHEEEIKTLFATLSNQELVDKIMSGVRKEEINPKCTHLVEYMDDKYPFYLDPMPNLYFTRDPQASIGHGITINRMFWRARRRESIFIQYIVKHHPRFKDANIPIWLDRDCPFNIEGGDELVLSKDVLAIGVSERTSAQAIEKLARRIFENPQATFKKVVAIEIPTSRTFMHLDTVFTMIDYDKFTMHSAILKAEGNMNIFIIEYDDVNKDIAIKQSSHLKDTLEDVLGIDDIQFIPTGNGDVIDGAREQWNDGSNTLCIRPGVVVTYDRNYVSNDLLRQKGIKVIEISGSELVRGRGGPRCMSQPLFREDI	not soluble
MPKTQSAAGYKAGVKDYKLTYYTPDYTPKDTDLLAAFRFSPQPGVPADEAGAAIAAESSTGTWTTVWTDLLTDMDRYKGKCYHIEPVQGEENSYFAFIAYPLDLFEEGSVTNILTSIVGNVFGFKAIRSLRLEDIRFPVALVKTFQGPPHGIQVERDLLNKYGRPMLGCTIKPKLGLSAKNYGRAVYECLRGGLDFTKDDENINSQPFQRWRDRFLFVADAIHKSQAETGEIKGHYLNVTAPTCEEMMKRAEFAKELGMPIIMHDFLTAGFTANTTLAKWCRDNGVLLHIHRAMHAVIDRQRNHGIHFRVLAKCLRLSGGDHLHSGTVVGKLEGDKASTLGFVDLMREDHIEADRSRGVFFTQDWASMPGVLPVASGGIHVWHMPALVEIFGDDSVLQFGGGTLGHPWGNAPGATANRVALEACVQARNEGRDLYREGGDILREAGKWSPELAAALDLWKEIKFEFETMDKL	soluble
MGSDKIHHHHHHMAIGTLEATTLIRGRAMTTVLPSPELIASFVDIVGPGNALTAPADTAPYLVESRGLYRGTTPLVLRPGSVEEVSLVMRLASQTRTAVVPQGGNTGHVAGQIPREGKADVVLSLERLNRIRDIDPVGNVIVADAGCILADIQKAADDVDRLFPLSLGSEGSARIGGNLSTNAGGTAVLAYGNMRQLCLGLEVVLPTGEIWDGLRRLRKDNTGYDLRDLFIGAEGTLGVITGAVLKLFPKPRGHQVAFAGLRSVEDALTLFDRATSVCGPALTGFELMPRLGIEFTTRHIAGVRDPMETTHPWYALIDISTSDTAESAERMVQDLLEAVIADGLVENAVIAQNEAQRRALWHMRESMSPAQKPEGGSIKHDVSVPVSSIPAFMTEADALVSKAIPGARICAFGHMGDGNIHYNISQPVGADKQSFLDRWREINAIVHAVVLKHDGSISAEHGIGQLKRDELAAIRSPIEIELMRRIKHAFDPAGIMNPDKVLREDRGE	not soluble
MSLSEPSVQADTRLNALIVQDIPERMPIYRALIEQLDVPSTLIEIEAMIVDVNTDLVNELGVTWGAQIGTTSLGYGDLGLRPGNGLPVDGAAAELAPGTLGISVSTRLAARLRALESDGQANILSQPSILTADNLGAMIDLSDTFYIRTLGERVATVTPVTVGTSLRVTPRYIAAKGGRQVELAIDIEDGRVLQEYPIDGLPRVRKSSISTLAVVGDEQTLLIGGYNNRRDEEQVEKVPLLGDIPGLGFLFSSKSRAVQRRERLFLIRPRVVAIEGKPVFSPVAGTSQVFMSTEGHHHHHH	soluble
MMSAPKITFIGAGSTIFVKNILGDVFHREALKTAHIALMDIDPTRLEESHIVVRKLMDSAGASGKITCHTQQKEALEDADFVVVAFQIGGYEPCTVTDFEVCKRHGLEQTIADTLGPGGIMRALRTIPHLWQICENMTEVCPDATMLNYVNPMAMNTWAMYARYPYIKQVGLCHSVQGTAEELARDLNIDPATLRYRCAGINHMAFYLELERKTADGSYVNLYPELLAAYEAGQAPKPNIHGNTRCQNIVRYEMFKKLGYFVTESSEHFAEYTPWFIKLGREDLIERYKVPLDEYPKRCVEQLANWHKELEEYKNASRIDIKPSREYASTIMNAIWTGEPSVIYGNVRNDGLIDNLPQGCCVEVACLVDANGIQPTKVGTLPSHLAALMQTNINVQTLLTEAILTENRDRVYHAAMMDPHTAAVLGIDEIYALVDDLIAAHGDWLPSWLHR	not soluble
ATPAPAAEMPGITIISASQTGNARRVAEALRDDLLAAKLNVKLVNAGDYKFKQIASEKLLIVVTSTQGEGEPPEEAVALHKFLFSKKAPKLENTAFAVFSLGDTSYEFFCQSGKDFDSKLAELGGERLLDRVDADVEYQAAASEWRARVVDALKSRAPVAAPSQSVA	soluble
MSSISSSSSNVRMDRRFDWVGPPDNLSKIRKIMLRRVDNESELERQYRLAREELNQWNSDFWAEHNQLFDRQKSDFVERKQQELGRLEHVSANELSEFYRDFLNDRHVAMMAYNKEWYRRNLQLIWPALKVNVVRFFRMARR	not soluble
SKKVIGKKRAHAEDDELDPMDPSSYSDAPRGGWVVGLKGVQPRAADTTASTGIFFKFQITDLTKPDEKIEVLTKRDQIVFQGPLFQQRPYPSPGAVLRRNAEVASSQKKKPNSQFTEITKRGDGSDGLGDAD	soluble
MSKAIKQNLADSKKMSAELFCLTYGAMVTEMLKDYEDPKDVTIQLDKMGFNMGTRLADDFLAKNANVPRCVDTRQIADVLCRNAIPCYLGISATASSWTSGDREFTITLEANPLTELVQVPAHLVSAGLSYSQLIAGAIRGALEAVHFKVYASATDTGANTEIRIRFDQVLKDSLPAGEDD	not soluble
MSLRGRTSTLKVAILCFEKDRPKLEALKEILGRSYEVEFVDYSKDVWDDVLQYDCIVAYLASGIVVRGICGRLRGKWKDPAVIVLDKPLKHAVVMLGGHHGGNEVAKKLEEAGLKAVITTAMEFTEGYSVGVGFRKNATADEILEAIAMALEEVGGRMEEIRVISTVDAKRDSAIVEVANRLKRPLIFVRAEEINSMDIRETKAVKIGVKNVAEACAIYASNSGELILPKRVYGGVTVAIAWEGHHHHHH	soluble
MNAFFTRALKPGARPLDETPGAILCPADGAVSQLGPIEHGRIFQAKGHGFSAQELLGGDPAMAAPFMGGEFATIYLSPKDYHRVHMPLAGTLREMVYVPGRLFSVNQTTAENVPELFARNERVVCLFDTERGPMAVVLVGAMIVASIETVWAGLVTPPKRELKTFRYDEASRTPIHLEKGAELGRFKLGSTAIVLFGPEQVKWAESLGAGSAVRMGQQLAAPAQALEHHHHHH	not soluble
MSYSIDNPGGGDCGFYALAIGLISIIQNEYKLHGKSKTYDRWKQVENIYGVRLQDILNIDLTKLHYSPYTYKSELLFLLQMSLRNIAVIVNKEDLVKRIIEEGRSKDQTKIEGSNAYCKFMELVQLYLYRRGSLERISQFNELALSPEIVQTARDIARMLRPILRNQPFHQAQKIENAFVKEVLLNDVLSGNTINSNSIILKSLEKIKEQGRWATHDDLKEIAELLKINLNVVGQPNGKPIPEYPTVTLKNLSNTHWITQVESLQGPRQYSTPSKRAFGYETLSDRAVPLKEEQTLDRAFRTETQSERTRRYNQHFETLFDTLSPYGFFPHVQSKRNVHVFGKAQTGLESDEALAAQLQEAELRRILY	not soluble
MSITHLMRQQVEELFKRFLEKTGLSEEATVYAVFIPKEEEVDEESVDVFEQRVNPKDAESVENFVSRLTKVALENDVKELKLYALVLDRDGETLIIAREENPEADEVIKELIERMKEEV	not soluble
MSLDDLWQTLPDPAELVTVGDLRGMIHTHSTWSDGGASIREMAEATLTLGHEFLGTADHSRAAYYANGLTIERLREQLKEIRELQRAGLPIVAGSEVDILDDGSLDFPDDVLGELDYVVVSVHSNFTLDAARQTERLIRAVSHPLVTVLGHATGRLLLRRPGYALDLDAVLGACEANGTVVEINANAARLDLDWREALRWRERLKFAINTDAHVPGGLRDARYGVMQARKAGLTPAHVVNSLGRAEFLDFVARQRAARGAPGPADREGHHHHHH	not soluble
MRRNYSRVIDELRTDYGLNLVAIGQRLGTDPRTVGKWWQGKHNPNQESRKKLNRLYREVKETMMTQVNIFEEANDNTKQVMQVITTTNFHGQPLDIYGDIQEPLFLARAVAEMIDYTKTSQGYYDVQAMLRKVDEDEKLKGMALEGTTKNFRSGQKVWFLTEHGLYEVLMRSNKPKAKEFRKAVKNILKEIRLNGYYMQGELVQELAQPSTQKLPGISDLTYILNKLADLVDMDNLADISNGIDRVQQLVKLISL	not soluble
MSLSGFNYEKNQPHQMRAVSAVLGVFDGATPKYRTADENPELLFAAKQYANNILKVQSQNGIDGRFPDRSDDQNILDISMETGTGKTYTYTQTMFELHRWLGVFKFIVVVPTLSIKAGTQQFLQSKALAEHFEQDFGGDYEGVRLKTYVVESAKKNKGKKSNAPITIEQFVKAENKKEIHVLLINAGMVNSSSMNDTGDKALKDLFDNPVDALAAVRPFMIVDEPHKFPTRDSAKTWGNIKRLKPQYILRYGATFNDEYYNLLYRLTAVDAFNDGLVKGVRVFQEEMQGGMDAAVKLVSSDGKEAKFELNEKDKKQTFKLAKGEDLAQIHPAISDLKIDKMNKTVVVLSNGLELKTGAVINPYSYSQTVQDAMMQRAVAEHFKLERALLAERAPQPKIKPLTLFFIDDIAGYRSGNELSGSLKDKFESWIRAEAARRLKTESDPFYRDYLQKTLDDVSACHGGYFSKDNTDSDDRIEQEINEILHDKEKLLSLDNPRRFIFSKWTLREGWDNPNVFQICKLRSSGSTTSKLQEVGRGLRLPVNELMARVRDVPYKLNYFVDSSEKDFVKQLVGEINDNSFQEEISKKFTEELKQKILQKYPDIKPLVLVNQLFLDGIIDDNENFAEDGYDKLKAAYPEAFPKGLDKGKVSNAKDEGKDTIIMREGKYEELKALWELIHHKAVLQYKIKDEAEFADLFTAYLHENAAKFPQAGIRTAVNEAYINNGLMLSRRIDSFEDEDFIRFNTMTYREFLEKLAQTAKIRMQTLHQAFYCIRNELNIGDFLNMQTIAQIKNGFNRFLLHHSFHKFELDYRLVGSKIHPTKFTNKDGKPRAVKKADLGRFEDTEHRPAAGYLFGEIFYDSDIEHENVANNQIEGVIVFTKIPRNSIKIPVAGGGTYSPDFAYIVKTKSGEILNFVIEAKGTDGAEDLRKSEERKIKHAEKLFAEISKEIKVVFKTQFDGERIAELIGQNMPAGGHSENGREGHHHHHH	not soluble
GMSTSPADTARYNRFVADLFGMMAYGELSAFERFSADARYSPTLHDRAVLGRIAVVEFRHYELVSARLEAMGIDAEDAMLPFQAAVDYFHSRTRPADWYESLMKAYVIDTVSADFYRAISRYVDAGTRDVIEQIQASDETTEVLRERLRSALADDPRLASRLALWGRRLLGEALTQAQRVSYEHAFLGSLIGGEDSAAAKELVSGLIAGLAEKHSKRMTQLGLTG	soluble
